Columns and labels:
[1] = biological target: Pyrococcus furiosus FlaH, wild type (PfFlaH) (Pyrococcus furiosus); assay: MST
SaFlaH [2] = biological target: SaFlaH (Sulfolobus acidocaldarius, UniProt Q4J9K9, K33A); assay: fluorescence titration; format: binding; details: 1 µM protein, 5 mM MnCl2, pH 6.2, 25 °C; labelled compound
SaFlaH [3] = biological target: SaFlaH (Sulfolobus acidocaldarius, UniProt Q4J9K9, D122N); assay: fluorescence titration; format: binding; details: 1 µM protein, 5 mM MnCl2, pH 6.2, 25 °C; labelled compound
SaFlaH (Sulfolobus acidocaldarius, UniProt Q4J9K9, D122N), sequence (Q4J9K9 whole entry D122N): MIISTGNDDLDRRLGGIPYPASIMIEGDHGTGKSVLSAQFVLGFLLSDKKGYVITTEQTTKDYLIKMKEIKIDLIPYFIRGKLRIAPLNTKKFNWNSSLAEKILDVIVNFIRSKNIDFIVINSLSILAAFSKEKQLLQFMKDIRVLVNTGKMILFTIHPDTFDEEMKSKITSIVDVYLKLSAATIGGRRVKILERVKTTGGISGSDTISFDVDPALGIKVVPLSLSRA

[4] = biological target: T1, StrepII-tagged Sulfolobus acidocaldarius FlaH (StrepII-FlaH) (Sulfolobus acidocaldarius, UniProt Q4J9K9 1-228); assay: pull-down
T1 sequence: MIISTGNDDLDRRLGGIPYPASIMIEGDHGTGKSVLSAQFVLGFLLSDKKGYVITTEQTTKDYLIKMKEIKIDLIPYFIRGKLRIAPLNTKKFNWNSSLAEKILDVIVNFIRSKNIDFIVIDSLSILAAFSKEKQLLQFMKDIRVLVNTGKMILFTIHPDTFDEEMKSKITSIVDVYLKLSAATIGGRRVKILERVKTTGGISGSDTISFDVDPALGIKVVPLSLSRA

SaFlaH (Sulfolobus acidocaldarius, UniProt Q4J9K9, K33A), sequence (Q4J9K9 whole entry K33A): as the sequence (Q4J9K9 whole entry D122N) above, with K33A, N122D counted along it

**Q.** With “Pyrococcus furiosus FlaI (PfFlaI) (enzyme)” as the molecule, how does the Kd [1] read?
**A.** The Kd was 1000 nM.

**Q.** Which results are given for CNc1ccccc1C(=O)O[C@H]1[C@@H](O)[C@H](n2cnc3c(N)ncnc32)O[C@@H]1COP(=O)(O)OP(=O)(O)OP(=O)(O)O (mixture of isomers) [MANT-ATP, 2’-/3’-O-(N’-methylanthraniloyl) adenosine-5’-O-triphosphate]?
**A.** fluorescence titration (FRET from tryptophan to MANT) (SaFlaH [2]): SaFlaH^K33A and SaFlaH^D122N only bound MANT-ATP with strongly reduced affinity; fluorescence titration (FRET from tryptophan to MANT) (SaFlaH [3]): SaFlaH^K33A and SaFlaH^D122N only bound MANT-ATP with strongly reduced affinity

B1: His6-tagged Sulfolobus acidocaldarius FlaXc (FlaX without its first 37 residues) (domain or fragment, UniProt Q4J9K6 38-250, looked up)
chain: KRVQTQQSPQNISQEQRFPTQQKPANDETSKYSSDSIEKALKDVLGKMDKKENELLTNITNSFNEMKKLIENLNSAVEELALSVKASESDSSSPFNTIIQQEEEHVSREISTVSQLVGSNNPNNVNLTWFIKSCVLLEIMEYDEEKIKQLYELGYVSSDDMFTILRILSFIKNRKITAKELASIAANIAESYSSLTPEIKKYIMILEGGGVNG
**Q.** Does B1 bind [4]?
**A.** Result: binds

B2: His6-tagged Sulfolobus acidocaldarius FlaXcc1 (FlaXc without the N-terminal domain 38-86) (domain or fragment, UniProt Q4J9K6 87-250, looked up)
chain: KKENELLTNITNSFNEMKKLIENLNSAVEELALSVKASESDSSSPFNTIIQQEEEHVSREISTVSQLVGSNNPNNVNLTWFIKSCVLLEIMEYDEEKIKQLYELGYVSSDDMFTILRILSFIKNRKITAKELASIAANIAESYSSLTPEIKKYIMILEGGGVNG
**Q.** Does B2 bind [4]?
**A.** Result: binds

— PMC5019145 (Molecular microbiology, 2015)
